Positions of bridges follow the written chain, without caps; N, C: chain ends. Non-standard residues stand in square brackets, D forms with d. Residues, ends and D or L forms follow the SMILES beside them. No end group written: not given here. *: point of attachment. Acetyl(1-adamantyl) = O=C(CC12CC3CC(CC(C3)C1)C2)*; NMeF = CN[C@@H](Cc1ccccc1)C(=O)O
Key:
[1] = biological target: T1, VCAM-1-IgG fusion protein (Homo sapiens, UniProt P05556+P13612); conditions: HL-60 cells; read-out: IC50, binding of HL-60 cells to VCAM-1-IgG fusion protein; cited from earlier work
T1 construct: host or cells: HL-60 cells (endogenous integrin); VCAM-1-IgG fusion protein of unstated origin

fibronectin [2] = conditions: cited from earlier work
Balb/C female mice = assay: In vivo ovalbumin delayed type hypersensitivity model; conditions: ovalbumin in the footpad
Method: Balb/C female mice (20-25 g) were immunised on the flank with an emulsion of ovalbumin (Sigma; 0.1 ml subcutaneous injection of 2 mg/ml solution mixed (1:1) with complete Freunds adjuvant; Difco). Seven days later the mice were challenged by subplantar injection of ovalbumin (30 μl of 1% heat aggregated ovalbumin in saline) into the left hind foot pad. Swelling of the foot developed over a 24 hour period following which foot pad thickness was measured and compared to the pre-challenge thickness. The percentage increase in foot pad thickness was calculated. Compounds were delivered by continuous infusion at doses within the range from 10 mg/kg/day to 0.001 mg/kg/day from subcutaneous Alzet osmotic minipumps which were implanted 24 hours prior to the ovalbumin challenge. Inhibition of the inflammatory response was calculated comparing vehicle treated animals and compound treated groups (n=5 animals per group).

[3] = tested on: αvβ3 as well as αIIbβIIIa; conditions: cited from earlier work
fibronectin [4] = biological target: T2, fibronectin (Homo sapiens, UniProt P05556+P13612); conditions: cited from earlier work
T2 construct: host or cells: Jurkat cells; fibronectin coated on plates

α4β1 = biological target: T3, α4β1 (Homo sapiens, UniProt P05556+P13612); conditions: Jurkat cells; read-out: IC50, blocking Jurkat cell adhesion to CS-1 coated plates; cited from earlier work
T3 construct: host or cells: Jurkat cells (endogenous integrin)
T3 sequence (P13612 34-1032): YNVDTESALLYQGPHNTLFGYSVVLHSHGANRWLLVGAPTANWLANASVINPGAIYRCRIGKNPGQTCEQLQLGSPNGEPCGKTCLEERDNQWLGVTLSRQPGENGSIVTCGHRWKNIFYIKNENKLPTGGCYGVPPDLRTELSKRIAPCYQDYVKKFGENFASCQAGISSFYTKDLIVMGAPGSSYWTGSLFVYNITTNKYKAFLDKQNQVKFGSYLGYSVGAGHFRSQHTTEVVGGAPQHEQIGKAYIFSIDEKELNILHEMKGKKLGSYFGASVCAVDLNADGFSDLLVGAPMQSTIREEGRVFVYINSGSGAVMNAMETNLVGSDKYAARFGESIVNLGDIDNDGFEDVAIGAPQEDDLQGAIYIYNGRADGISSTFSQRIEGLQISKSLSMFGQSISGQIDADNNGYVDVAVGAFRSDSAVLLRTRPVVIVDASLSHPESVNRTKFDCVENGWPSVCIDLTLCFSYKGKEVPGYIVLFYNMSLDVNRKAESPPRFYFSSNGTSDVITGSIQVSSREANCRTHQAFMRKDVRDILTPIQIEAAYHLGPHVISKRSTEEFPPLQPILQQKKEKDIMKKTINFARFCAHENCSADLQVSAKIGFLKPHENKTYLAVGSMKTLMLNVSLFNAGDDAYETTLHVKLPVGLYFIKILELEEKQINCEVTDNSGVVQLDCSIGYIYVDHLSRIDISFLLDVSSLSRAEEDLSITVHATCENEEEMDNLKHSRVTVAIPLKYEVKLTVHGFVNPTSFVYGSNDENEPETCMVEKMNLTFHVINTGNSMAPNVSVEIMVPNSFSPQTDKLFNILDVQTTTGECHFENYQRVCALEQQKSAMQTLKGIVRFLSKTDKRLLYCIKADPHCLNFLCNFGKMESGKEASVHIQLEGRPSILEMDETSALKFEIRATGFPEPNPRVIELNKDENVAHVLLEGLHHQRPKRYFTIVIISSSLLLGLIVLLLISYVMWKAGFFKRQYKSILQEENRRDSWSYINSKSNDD
T3 sequence (P05556 21-798): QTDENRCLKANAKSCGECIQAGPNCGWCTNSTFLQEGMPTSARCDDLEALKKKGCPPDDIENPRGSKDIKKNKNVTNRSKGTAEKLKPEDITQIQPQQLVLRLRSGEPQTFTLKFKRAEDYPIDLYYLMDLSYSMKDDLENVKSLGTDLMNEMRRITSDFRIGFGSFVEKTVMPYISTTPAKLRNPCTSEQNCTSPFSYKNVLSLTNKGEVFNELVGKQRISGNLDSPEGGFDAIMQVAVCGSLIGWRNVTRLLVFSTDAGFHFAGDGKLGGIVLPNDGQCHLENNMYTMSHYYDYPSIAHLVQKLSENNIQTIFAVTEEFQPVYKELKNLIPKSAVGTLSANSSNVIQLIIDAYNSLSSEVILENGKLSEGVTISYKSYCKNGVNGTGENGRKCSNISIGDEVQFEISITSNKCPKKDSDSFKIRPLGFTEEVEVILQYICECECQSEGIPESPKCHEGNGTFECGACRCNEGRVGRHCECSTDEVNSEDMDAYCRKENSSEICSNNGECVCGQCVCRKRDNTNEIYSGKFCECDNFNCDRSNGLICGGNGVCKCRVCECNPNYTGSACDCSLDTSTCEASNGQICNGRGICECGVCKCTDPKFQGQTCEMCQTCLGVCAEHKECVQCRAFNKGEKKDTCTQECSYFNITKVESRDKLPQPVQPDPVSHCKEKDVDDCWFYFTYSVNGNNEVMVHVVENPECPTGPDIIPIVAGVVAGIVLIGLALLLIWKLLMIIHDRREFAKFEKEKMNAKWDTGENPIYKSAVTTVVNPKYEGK

T1 sequence (P13612 34-1032): as the sequence (P13612 34-1032) above
T1 sequence (P05556 21-798): as the sequence (P05556 21-798) above
T2 sequence (P13612 34-1032): as the sequence (P13612 34-1032) above
T2 sequence (P05556 21-798): as the sequence (P05556 21-798) above

## c(Glu-Trp-Leu-Asp-Val-Pro-Glu-Trp-Leu-Asp-Val) (EWLDVPEWLDV; cyclised; printed: Glu-Trp-Leu-Asp-Val-Pro-Glu-Trp-Leu-Asp-Val)
[1]
  IC50: > 1000 µM

## c(Glu-TripLeu-Asp-Val)
[1]
  IC50: 94 µM

## Arg-Cys-Asp-thioproline-Cys
Fibronectin [2]
  leukocyte cell adhesion to fibronectin: inhibitor
Fibronectin [2]; fragment contains the Arg-Gly-Asp central cell binding domain
  binding to the 120 kDa chymotryptic fragment of fibronectin: inhibited the binding

## CC(C)C[C@@H]1NC(=O)[C@H](Cc2ccccc2)N(C)C(=O)[C@@H](CCCNC(=N)N)NC(=O)[C@@H](CCCNC(=N)N)NC(=O)[C@H](C(C)C)NC(=O)[C@H](CC(=O)O)NC1=O [compound 20, c(MePhe-Leu-Asp-Val-D-Arg-D-Arg)] (cyclo(DV[dR][dR][NMeF]L))
Balb/C female mice
  dose required to produce a half-maximal inhibitory response in DTH: 0.01 mg/kg/day

## 1-adamantaneacetyl-Cys-Gly-Arg-Gly-Asp-Ser-Pro-Cys ({Acetyl(1-adamantyl)}-CGRGDSPC; disulfide 1-8 (inferred))
[3]
  function in αvβ3 as well as αIIbβIIIa-dependent assays: inhibited function
Fibronectin [4]
  binding of Jurkat cells to fibronectin coated plates: inhibited the binding
α4β1
  IC50: 30 µM

## CLHGPEILDVPST
α4β1
  IC50: 30 µM

## c(Glu-Trp-Leu-Asp-Val-Asp) (EWLDVD; cyclised; printed: Glu-Trp-Leu-Asp-Val-Asp)
[1]
  IC50: > 1000 µM

Reference: US6235711A, “Cell adhesion ihibiting compounds” (Zeneca Limited, priority 1996, dated 2001)
